Results from the supplement of paper PMC10567573.

B1: ZNF511 (parent)
chain: FDALDDYEHHYHTLHGNVCSFCKR

Variants of: B1
Test: protein stability index of a GFP-peptide fusion (GPS, HEK-293T) (PSI 1-6); higher = more stable
Details: c terminus: a fixed tail appended
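Note: lentivirally expressed fusions sorted by FACS into six bins by GFP to DsRed ratio, PSI derived from sequencing read proportions per bin multiplied by bin number.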

Row | Variant | protein stability index
1 | FDALDDIEHHYHTLHGNVCSFCKR | 4.18
2 | FDALDDDEHHYHTLHGNVCSFCKR | 4.22
3 | FDALDDKEHHYHTLHGNVCSFCKR | 4.44
4 | FDALDDFEHHYHTLHGNVCSFCKR | 3.24
5 | FDALDDNEHHYHTLHGNVCSFCKR | 4.25
6 | FDALDDHEHHYHTLHGNVCSFCKR | 4.43
7 | FDALDDPEHHYHTLHGNVCSFCKR | 3.97
8 | FDALDDTEHHYHTLHGNVCSFCKR | 4.16
9 | FDALDDEEHHYHTLHGNVCSFCKR | 4.31
10 | FDALDDQEHHYHTLHGNVCSFCKR | 4.25
11 | FDALDDSEHHYHTLHGNVCSFCKR | 4.05
12 | FDALDDVEHHYHTLHGNVCSFCKR | 3.98
13 | FDALDDCEHHYHTLHGNVCSFCKR | 4.92
14 | FDALDDLEHHYHTLHGNVCSFCKR | 3.54
15 | FDALDDGEHHYHTLHGNVCSFCKR | 4.16
16 | FDALDDMEHHYHTLHGNVCSFCKR | 4.29
17 | FDALDDREHHYHTLHGNVCSFCKR | 4.23
18 | FDALDDWEHHYHTLHGNVCSFCKR | 3.71
19 | FDALDDAEHHYHTLHGNVCSFCKR | 3.4
20 | FDALTDYEHHYHTLHGNVCSFCKR | 3.7
21 | FDALSDYEHHYHTLHGNVCSFCKR | 3.24
22 | FDALKDYEHHYHTLHGNVCSFCKR | 3.09
23 | FDALFDYEHHYHTLHGNVCSFCKR | 2.5
24 | FDALADYEHHYHTLHGNVCSFCKR | 4.03

Row | Variant | protein stability index
25 | FDALMDYEHHYHTLHGNVCSFCKR | 3.14
26 | FDALHDYEHHYHTLHGNVCSFCKR | 3.9
27 | FDALQDYEHHYHTLHGNVCSFCKR | 3.86
28 | FDALRDYEHHYHTLHGNVCSFCKR | 3.5
29 | FDALEDYEHHYHTLHGNVCSFCKR | 3.77
30 | FDALPDYEHHYHTLHGNVCSFCKR | 4.11
31 | FDALCDYEHHYHTLHGNVCSFCKR | 4
32 | FDALWDYEHHYHTLHGNVCSFCKR | 2.98
33 | FDALLDYEHHYHTLHGNVCSFCKR | 3.18
34 | FDALNDYEHHYHTLHGNVCSFCKR | 3.98
35 | FDALVDYEHHYHTLHGNVCSFCKR | 3.54
36 | FDALGDYEHHYHTLHGNVCSFCKR | 4.12
37 | FDALIDYEHHYHTLHGNVCSFCKR | 3.45
38 | FDALYDYEHHYHTLHGNVCSFCKR | 3.1
39 | FDALDFYEHHYHTLHGNVCSFCKR | 2.21
40 | FDALDMYEHHYHTLHGNVCSFCKR | 3.03
41 | FDALDHYEHHYHTLHGNVCSFCKR | 3.96
42 | FDALDKYEHHYHTLHGNVCSFCKR | 2.97
43 | FDALDQYEHHYHTLHGNVCSFCKR | 3.56
44 | FDALDVYEHHYHTLHGNVCSFCKR | 2.98
45 | FDALDSYEHHYHTLHGNVCSFCKR | 3.95
46 | FDALDPYEHHYHTLHGNVCSFCKR | 3.74
47 | FDALDEYEHHYHTLHGNVCSFCKR | 3.43
48 | FDALDIYEHHYHTLHGNVCSFCKR | 3.51

Row | Variant | protein stability index
49 | FDALDYYEHHYHTLHGNVCSFCKR | 2.59
50 | FDALDTYEHHYHTLHGNVCSFCKR | 3.27
51 | FDALDLYEHHYHTLHGNVCSFCKR | 4.68
52 | FDALDCYEHHYHTLHGNVCSFCKR | 4.28
53 | FDALDWYEHHYHTLHGNVCSFCKR | 1.67
54 | FDALDGYEHHYHTLHGNVCSFCKR | 3.69
55 | FDALDNYEHHYHTLHGNVCSFCKR | 3.91
56 | FDALDRYEHHYHTLHGNVCSFCKR | 3.52
57 | FDALDAYEHHYHTLHGNVCSFCKR | 3.54
58 | FDNLDDYEHHYHTLHGNVCSFCKR | 3.63
59 | FDHLDDYEHHYHTLHGNVCSFCKR | 3.63
60 | FDWLDDYEHHYHTLHGNVCSFCKR | 2.87
61 | FDPLDDYEHHYHTLHGNVCSFCKR | 3.7
62 | FDELDDYEHHYHTLHGNVCSFCKR | 4.08
63 | FDLLDDYEHHYHTLHGNVCSFCKR | 3.69
64 | FDVLDDYEHHYHTLHGNVCSFCKR | 3.59
65 | FDYLDDYEHHYHTLHGNVCSFCKR | 3.54
66 | FDILDDYEHHYHTLHGNVCSFCKR | 3.31
67 | FDGLDDYEHHYHTLHGNVCSFCKR | 3.96
68 | FDRLDDYEHHYHTLHGNVCSFCKR | 3.81
69 | FDSLDDYEHHYHTLHGNVCSFCKR | 3.77
70 | FDKLDDYEHHYHTLHGNVCSFCKR | 2.87
71 | FDQLDDYEHHYHTLHGNVCSFCKR | 4.04
72 | FDFLDDYEHHYHTLHGNVCSFCKR | 3.19

Row | Variant | protein stability index
73 | FDDLDDYEHHYHTLHGNVCSFCKR | 3.72
74 | FDMLDDYEHHYHTLHGNVCSFCKR | 3.56
75 | FDTLDDYEHHYHTLHGNVCSFCKR | 3.56
76 | FDCLDDYEHHYHTLHGNVCSFCKR | 4.06
77 | FEALDDYEHHYHTLHGNVCSFCKR | 4.27
78 | FLALDDYEHHYHTLHGNVCSFCKR | 3.18
79 | FAALDDYEHHYHTLHGNVCSFCKR | 3.4
80 | FWALDDYEHHYHTLHGNVCSFCKR | 2.3
81 | FGALDDYEHHYHTLHGNVCSFCKR | 4.03
82 | FYALDDYEHHYHTLHGNVCSFCKR | 3.1
83 | FTALDDYEHHYHTLHGNVCSFCKR | 3.18
84 | FHALDDYEHHYHTLHGNVCSFCKR | 2.17
85 | FFALDDYEHHYHTLHGNVCSFCKR | 2.48
86 | FMALDDYEHHYHTLHGNVCSFCKR | 3.01
87 | FNALDDYEHHYHTLHGNVCSFCKR | 3.06
88 | FKALDDYEHHYHTLHGNVCSFCKR | 3.78
89 | FQALDDYEHHYHTLHGNVCSFCKR | 2.93
90 | FSALDDYEHHYHTLHGNVCSFCKR | 3.51
91 | FVALDDYEHHYHTLHGNVCSFCKR | 2.06
92 | FIALDDYEHHYHTLHGNVCSFCKR | 3.62
93 | FCALDDYEHHYHTLHGNVCSFCKR | 3.17
94 | FPALDDYEHHYHTLHGNVCSFCKR | 3.11
